Data as given in patent US9714285 (dated 2017).

T1: TGFβ2 (human, UniProt P61812)
T1 chain: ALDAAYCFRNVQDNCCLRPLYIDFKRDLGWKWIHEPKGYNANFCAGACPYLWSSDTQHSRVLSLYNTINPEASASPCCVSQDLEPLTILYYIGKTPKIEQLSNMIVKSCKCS

T2: TGFβ3 (human, UniProt P10600)
T2 chain: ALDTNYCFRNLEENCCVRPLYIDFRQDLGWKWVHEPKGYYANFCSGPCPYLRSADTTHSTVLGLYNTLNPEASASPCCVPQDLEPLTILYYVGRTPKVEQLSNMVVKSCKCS


Tests used:
[1] = molecular target: T1, TGFβ2; assay: SPR
[2] = molecular target: T2, TGFβ3; assay: SPR
[3] = molecular target: T3, TGFβ1 (human, UniProt P01137); assay: SPR
[4] = molecular target: T3, TGFβ1; assay: competition, SPR vs TGFβ-RIII
[5] = molecular target: T3, TGFβ1; assay: competition, SPR vs TGFβ-RII
[6] = molecular target: T2, TGFβ3; assay: competition, SPR vs TGFβ-RIII
[7] = molecular target: T1, TGFβ2; assay: competition, SPR vs TGFβ-RII
[8] = molecular target: T2, TGFβ3; assay: competition, SPR vs TGFβ-RII
[9] = molecular target: T1, TGFβ2; assay: competition, SPR vs TGFβ-RIII

binding result [1]	binding result [2]	binding result [3]	EC50 [4] [nM]	EC50 [5] [nM]	EC50 [6] [nM]	EC50 [7] [nM]	EC50 [8] [nM]	EC50 [9] [nM]	Binder
no binding	no binding	no binding	–	–	–	–	–	–	TGFβ-RI (protein) LQCFCHLCTKDNFTCVTDGLCFVSVTETTDKVIHNSMCIAEIDLIPRDRPFVCAPSSKTGSVTTTYCCNQDHCNKIELPTTVKSSPGLGPVEL
–	–	–	0.6	2	1.9	2.2	1.4	2.4	XPA.42.068 (antibody, V domains shown) VH: not shown VL: SSELTQPPSVSVAPGEKARITCGGNNIGRKSVHWYQQRPGQAPVVVLYYDRVRPSGIPERFSGSNSGNTATLTITRVEAGDEADYFCQVWDNTSEHVVFGGGTQLTVLG
–	–	–	1.2	1.7	31	1.8	34	1.6	XPA.42.089 (antibody, V domains shown) VH: QVQLVQSGAEVKKPGSSVKVSCKASGGTFSSYAISWVRQAPGQGLEWMGGIIPIFGTANYAQKFQGRVTITADESTSTAYMELSSLRSEDTAVYYCARGLWEVRALPSVYWGQGTLVTVSS VL: SYELTQPPSVSVAPGQTARITCGANDIGSKSVHWYQQKAGQAPVLVVSEDIIRPSGIPERISGSNSGNTATLTISRVEAGDEADYYCQVWDRDSDQYVFGTGTKVTVLG
–	–	–	1.2	2.3	1.1	1.7	1.2	2.1	XPA.42.681 (antibody, V domains shown) VH: not shown VL: SYVLTQPPSVSVAPGKTARITCGGNNIGFRSVHWYQQKSGQAPVLVIYFDRARPSGIPERFSASNSENTATLTIRRVEAGDEADYYCQVWDSDSDDLVFGGGTQLTVLG
